Where a chain is given by its changes, count along the chain named. Names may count otherwise.
B1: Tm1743 (Thermotoga maritima MSB8) (protein)
chain: MLYKELGRTGEEIPALGLGTWGIGGFETPDYSRDEEMVELLKTAIKMGYTHIDTAEYYGGGHTEELIGKAIKDFRREDLFIVSKVWPTHLRRDDLLRSLENTLKRLDTDYVDLYLIHWPNPEIPLEETLSAMAEGVRQGLIRYIGVSNFDRRLLEEAISKSQEPIVCDQVKYNIEDRDPERDGLLEFCQKNGVTLVAYSPLRRTLLSEKTKRTLEEIAKNHGATIYQIMLAWLLAKPNVVAIPKAGRVEHLRENLKATEIKLSEEEMKLLDSLG
B2: Tm1743 (Thermotoga maritima MSB8; W21S/W86N) (protein)
chain: B1 chain with W21S, W86N
B3: Tm1743 (Thermotoga maritima MSB8; W21S/W86E) (protein)
chain: B1 chain with W21S, W86E
B4: Tm1743 (Thermotoga maritima MSB8; W118H/W21L) (protein)
chain: B1 chain with W21L, W118H
B5: Tm1743 (Thermotoga maritima MSB8; W118E/W21L) (protein)
chain: B1 chain with W21L, W118E

Substrate: CCOC(=O)C(=O)CCc1ccccc1
Experiment: purified protein
Assay type: biochemical, Thermotoga maritima
Details: apparent, 0.25 mM NADPH, 50 mM potassium phosphate pH 6.5, 35 °C, 30 mM DMSO

| Molecule | Km [µM] | kcat [s⁻¹] | kcat/Km [M⁻¹ s⁻¹] |
| --- | --- | --- | --- |
| B1 | 1100 ± 40 | 1.96 ± 0.02 | 1780 ± 30 |
| B2 | 1620 ± 20 | 0.84 ± 0.01 | 510 ± 20 |
| B3 | 1250 ± 20 | 1.01 ± 0.01 | 810 ± 20 |
| B4 | 15980 ± 200 | 1.98 ± 0.01 | 120 ± 10 |
| B5 | 10530 ± 100 | 1.98 ± 0.02 | 190 ± 10 |

Biological target: T1, Tm1743 (Thermotoga maritima, UniProt Q9X265)
T1 construct: gene TM_1743
Experiment: X-ray crystal structure, […] Å
Details: co-crystallised, protein:NADP+ 1:1.5 molar; cofactor binding site

| Molecule | X-ray crystal structure, 2.0 Å |
| --- | --- |
| NC(=O)c1ccc[n+]([C@@H]2O[C@H](COP(=O)(O)OP(=O)(O)OC[C@H]3O[C@@H](n4cnc5c(N)ncnc54)[C@H](OP(=O)(O)O)[C@@H]3O)[C@@H](O)[C@H]2O)c1 [NADP^+] | we crystallized Tm1743 in complex with the cofactor NADP^+ |
